Results reported in article PMC7357845.

Molecular target: rabbit skeletal muscle G-actin (rabbit) (UniProt P68135)
Assay: SPR

Substance: His-tagged ZASP-S WT (N21 His-tag) (from UniProt O75112-6 1-283) (natural protein)
- Kd: 2 nM

Substance: untagged ZASP-S WT (from UniProt O75112-6 1-283) (natural protein)
- Kd: 62 nM
